Source: US8173131B2, “Compositions and methods for modulating RSV infection and immunity” (PerkinElmer Health Sciences, Inc., priority 2000, dated 2012)
Like-named read-outs stand apart in the source and are kept apart here.

T1: CX3CR1 (293-CX3CR1 cells) (Homo sapiens, UniProt P49238)
T1 construct: expressed in transfected cells
T1 sequence (P49238 1-355): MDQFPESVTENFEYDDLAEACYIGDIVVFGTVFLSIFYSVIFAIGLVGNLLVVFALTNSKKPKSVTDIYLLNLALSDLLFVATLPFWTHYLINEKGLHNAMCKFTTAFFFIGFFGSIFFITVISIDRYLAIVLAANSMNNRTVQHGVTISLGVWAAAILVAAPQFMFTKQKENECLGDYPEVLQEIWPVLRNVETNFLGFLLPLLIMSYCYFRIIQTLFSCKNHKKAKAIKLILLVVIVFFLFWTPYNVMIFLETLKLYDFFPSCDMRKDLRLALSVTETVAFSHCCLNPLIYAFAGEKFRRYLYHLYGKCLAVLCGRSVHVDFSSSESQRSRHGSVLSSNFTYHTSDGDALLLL

B1: G glycoprotein: purified G glycoprotein isolated from RSV/A2-infected Vero cells (protein)
chain: MSKNKDQRTAKTLERTWDTLNHLLFISSCLYKLNLKSVAQITLSILAMIISTSLIIAAIIFIASANHKVTPTTAIIQDATSQIKNTTPTYLTQNPQLGISPSNPSEITSQITTILASTTPGVKSTLQSTTVKTKNTTTTQTQPSKPTTKQRQNKPPSKPNNDFHFEVFNFVPCSICSNNPTCWAICKRIPNKKPGKKTTTKPTKKPTLKTTKKDPKPQTTKSKEVPTTKPTEEPTINTTKTNIITTLLTSNTTGNPELTSQMETFHSTSSEGNPSPSQVSTTSEYPSQPSSPPNTPRQ

Tests used:
[1] = target: T1, CX3CR1 (293-CX3CR1 cells); assay: G glycoprotein and Fkn binding to 293-CX3CR1 cells by flow cytometry; settings: for percent positive staining of CX3CR1-293 cells: representative experiment, FIG. 1
Procedure: Purified G glycoprotein was examined for binding to 293-CX3CR1 cells^33. A pcDNA 3.1 plasmid containing the CX3CR1 gene and a neomycin resistance gene was used to stably transfect human embryonic kidney (HEK) cells. Neomycin resistance was used for selection and maintenance of plasmid transfection of human embryonic kidney cells.
All binding studies were done on ice and either G glycoprotein or human Fkn (R&D Diagnostics, Minneapolis, […]) containing 1% bovine serum albumin (Sigma) and incubated with the 293-CX3CR1 cells or 293 control cells for 30 min at 4° C. […] For inhibition studies, 100 pM-1 μM human Fkn or G glycoprotein was preincubated with the cells for 30 min at 4° C. Without washing, 100 pM of either Fkn or G glycoprotein was added and incubated for 30 min at 4° C. The cells were washed, blocked with FcγRIII blocking antibody (HB197) for 30 min on ice, washed and stained as appropriate with either an anti-G glycoprotein monoclonal antibody cocktail (132-5B, 132-5G, 130-2G, 232-IF) or a biotinylated anti-G glycoprotein monoclonal antibody cocktail (130-2G, 131-2G) or anti-Fkn monoclonal antibody (51637.11; R&D Diagnostics). Concentrations of 1 μg of anti-G glycoprotein monoclonal antibody (131-2G)^34, rabbit anti-CX3CR1 sera^33, and anti-CX3CR1 monoclonal antibody containing 10 μg/ml heparin were used in all experiments. […] Staining was detected with absorbed FITC-goat anti-mouse (H & L chain) monoclonal antibody (PharMingen, San Diego, Calif.) or streptavidin-PE (PharMingen) using flow cytometry (FACScan, Becton-Dickinson, Mountain View, Calif.). A 76 amino acid ^125I-Fkn polypeptide comprising the […] (NEN, Boston, Mass.) was used in radioligand studies^33. As a control, the void volume following purified G glycoprotein passaged over an anti-G glycoprotein antibody (130-2G) affinity column was examined by flow cytometry for binding to either 293 or 293-CX3CR1 cells.
The receptor for Fkn, CX3CR1, was previously identified and characterized using anti-CX3CR1 rabbit antiserum and CX3CR1-transfected human embryonic kidney cells (293-CX3CR1 cells)^33.
The percent Fkn-maximum binding was calculated using the equation: [% G (or Fkn) 293-CX3CR1]-[% G (or Fkn) 293]/[% Fkn (10 nM) 293-CX3CR1]-[% Fkn (10 nM) 293], where G=G glycoprotein, Fkn=fractalkine, 293-CX3CR1=CX3CR1-transfected 293, 293=untransfected 293. The concentration of G glycoprotein was estimated using a molecular weight of 90 kD.

[2] = test system: murine spleen leukocyte cell migration; assay: Murine leukocyte chemotaxis in modified Boyden chamber; assay type: cell-based, mouse
Procedure: The chemotactic index was determined from the fold increase of murine spleen leukocyte cell migration toward the chemoattractant (e.g., Fkn or G glycoprotein) over the leukocyte migration toward media alone control, using modified Boyden chambers. Fkn, G glycoprotein, recombinant polyhistidine-tagged G glycoprotein (GHIS), anti-CX3CR1 monoclonal antibody (2A9-1), normal rabbit serum, rabbit anti-CX3CR1 serum, anti-G glycoprotein monoclonal antibody (131-2G) or anti-F glycoprotein monoclonal antibody (131-2A) were added to the upper chamber to examine antagonism of cell migration toward the chemoattractant in the lower chamber.
Leukocyte chemotaxis toward Fkn, G glycoprotein or media was measured according to Boyden^46 using 24 well plates (Costar, Cambridge, Mass.) with 3 μm filter inserts (Nalge Nunc, Rochester, N.Y.) coated with an extracellular matrix consisting primarily of laminin, collagen IV and proteoglycan (ECM, Sigma, St. Louis, Mo.). For murine studies, 5×10^5 naïve spleen cells was placed in the upper chamber and 10 nM mouse Fkn or 10 nM G glycoprotein, anti-CX3CR1 antibody, anti-G or anti-F glycoprotein monoclonal antibody, normal rabbit sera, rabbit anti-CCR5 sera or media was placed in the upper or lower chamber as appropriate. For human studies, 10^6 density gradient purified (Lymphocyte Separation Media, ICN Biomedicals, Aurora, Ohio, per manufacture instructions) peripheral blood mononuclear cells (PBMC) from normal human adult donors was placed in the upper chamber in the presence or absence of 1 μM peptide RT33, and 10 nM human Fkn, 10 nM G glycoprotein or 1 μM peptide RT33 placed in the lower chambers. The modified Boyden chamber was incubated at 37° C. for 4-6 h, the inserts removed, washed in PBS (GIBCO BRL), fixed in 3% gluteraldehyde and stained in formalin-buffered 0.01% crystal violet. Chemotactic cells were visualized with a microscope. Chemotactic cells were analyzed for CX3CR1 expression by collecting cells from the upper or lower modified Boyden chambers, antibody staining (2A9-1) and flow cytometry as described. Leucocytes chemotactic toward G or Fkn expressed a higher percent of CX3CR1 in the lower (25-30%) versus upper chamber (7-11%).

[3] = target: T2, Fkn binding to 293-CX3CR1 cells (Homo sapiens, UniProt P49238)
T2 construct: host or cells: HEK 293 cells stably transfected with CX3CR1

[4] = 10 nM ligand, 293-CX3CR1 minus 293 binding relative to 10 nM Fkn
[5] = substance added to upper chamber as antagonist

Molecule | Fkn-Maximum Binding (%) ([1]; 10 pM ligand) | Fkn-Maximum Binding (%) ([1]; 100 pM ligand) | Fkn-Maximum Binding (%) ([1]; 1 nM ligand) | Fkn-Maximum Binding (%) [1, 4] [%] | percent positive staining of CX3CR1-293 cells ([1]; 10 nM ligand) [%] | concentration saturating 293-CX3CR1 binding ([1]; 30 min at 4° C.) [nM] | chemotactic index toward G glycoprotein [2, 5] | inhibition of leukocyte chemotaxis toward G glycoprotein ([2]; substance in upper chamber) | Range of Inhibition (%) of Fkn binding ([3]; heparin 5 μg/ml + peptide 1 μM) | binding to 293-CX3CR1 cells ([1]; wheat germ lectin column fraction (G, F glycoprotein) or purified recombinant polyhistidine-tagged G glycoprotein) [%] | chemotactic index toward Fkn [2, 5] | inhibition of leukocyte chemotaxis toward Fkn ([2]; substance in upper chamber) | Range of Inhibition (%) of Fkn binding ([3]; heparin 5 μg/ml + G glycoprotein 10 nM)
Fkn: CX3C chemokine fractalkine (R&D), ligand of CX3CR1 [reference compound] | 46 | 98 | 99 | 98 | 88 | 1 to 10 | 1.2 | approximately 75% |  |  |  |  | 
TCWAICKRIPNK [RT33] |  |  |  |  |  |  |  |  | 70-80% |  |  |  | 
B1 | 40 | 80 | 87 | 88 | 84 |  |  |  |  | 70 | 3.2 | approximately 37% | 80-85%
